Laboratory results reported in the DeepSol protein solubility set.

assay: soluble on expression in E. coli; label from the status in PepcDB or PDB records

| Sequence | soluble on expression in E. coli |
| --- | --- |
| MLFKTIFYQKLQKKVTTLFNLETERVIREIENLNKNNPKVIFQAPEGLKLKVEKEIEKIKQYFKQKNINIEIYLWGNTCFGACDLIDNHVKNLNVDLIIHYGHEKLSYANPEIKTLFIPAYHIFNKDEEEKILNDIKNFIEKHKSGGKKVAIATTIQYKKLLKDFNPSIILGCRGEVKEGDVILFVGTGRFHPLMIAYKYQKEVFIYNPLSKCFDKISEEEINKFIKKRILAISKLLLNKPKKVGVVLSTKKGQCRKRVFDEIIKLLEENDVNYLPILVDNISPDILFYDVDCYIIVACPRIVLDDYILYKKPIYTPEEFKLFLKNSFKYKFDEIKEDDFLEHHHHHH | soluble |
| MLFPTTIAGSLPKPEWLAEPNKLWAPWKSTGAELLRAKRDATILALKLQEDSGIDIVTEGEQARQHFVHGFLEAVEGIDFAHKVEMGIRNDRYKAMVPQVVAPLRLKGRVHGFEGQIARAHSTHKIKFTLPGPMTIIDTIADRHYGDRVKMAFAFAELLNEEAKALQADGIDMIQFDEPAFNVYMSEAADWGVKALERAAQDLTCATAVHICYGYGIKANTDWKETLGAEWRQYEDIFPAIDASSIQQVAVECRNSKVPLELLSLLKGKIVQAGVIDVASDEVETAEDVCATIEAVMQHVPKSNIIATTNCGMAPMRREIAEAKLAALGAGAELARERFKLEHHHHHH | soluble |
| MLFQNVSIAGLAHVDAPHTLTSKEINGRLQPTYDRLGIKTDVLGDVAGIHARRLWDQDVQASDAATQAARKALIDAGIGIEKIGLLVNTSVSRDYLEPSTASIVSGNLGVGDHCVTFDVANACLAFINGMDIAARMLERGEIDYALVVDGETANLVYEKTLERMTSPDVTEEEFRNELAALTLGCGAAAMVMARTELVPDAPRYKGGVTRSATEWNKLCRGNLDRMVTDTRLLLIEGIKLAQKTFLAARQVLGWAVDELDQFVIHQVSRPHTAAFVKSFGIDPAKVMTIFGEHGNIGPASVPIVLSKLKELGRLKKGDRIALLGIGSGLNCSMAEVVW | soluble |
| MLGMTHFSQQDNFSVAARVLGALFYYAPESAEAAPLVAVLTSDGWETQWPLPEASLAPLVTAFQTQCEETHAQAWQRLFVGPWALPSPPWGSVWLDRESVLFGDSTLALRQWMREKGIQFEMKQNEPEDHFGSLLLMAAWLAENGRQTECEELLAWHLFPWSTRFLDVFIEKAEHPFYRALGELARLTLAQWQSQLLIPVAVKPLFR | not soluble |
| MLGMYVPDRFALKSSRVQDGMGLYTARRVRKGEKFGPFAGEKRMPEDLDENMDYRLMWEVRGSKGEVLYILDATNPRHSNWLRFVHEAPSQERKNLAAIQEGENIFYLAVDDIETDTELLIGYLDSDVEAEEEEQQALTMTKEGKVDHSKGQLAAGSKGHLGCEEDFACPQCESSFPSEEVLTEHLQSLHQKPTGEKEFKCENCGKKFPVRQALQRHFEQHRKACRGEARFVCKADSCGKRLKSKDALRRHQENVHTGDPKRKLICSVCNRKCTSVSSLQEHRKIHEIFDCQECMKKFISANQLKRHMITHSEKRPYNCEICNKSFKRLDQVGAHKVIHSEDKPYQCKLCGKGFAHRNVYKNHKKTHSEERPFQCDACKALFRTPFSLQRHLLIHNSERTFKCHHCDATFKRKDTLNVHVQVVHERHKKYRCELCNKAFVTPSVLRSHKKTHTGEKEKVCPYCGQKFASSGTLRVHIRSHTGERPYQCPYCEKGFSKNDGLKMHIRTHTREKPYQCSECSKAFSQKRGLDATKRTHTGEKPFQCDVCDLAFSLKKMLIRHKMTHNPNRPMAECHFCHKKFTRNDYLKVHMDNIHGVADS | soluble |
| MLGVCYYPEHWPKERWKEDARRMREAGLSHVRIGEFAWALLEPEPGRLEWGWLDEAIATLAAEGLKVVLGTPTATPPKWLVDRYPEILPVDREGRRRRFGGRRHYCFSSPVYREEARRIVTLLAERYGGLEAVAGFQTDNEYGCHDTVRCYCPRCQEAFRGWLEARYGTIEALNEAWGTAFWSQRYRSFAEVELPHLTVAEPNPSHLLDYYRFASDQVRAFNRLQVEILRAHAPGKFVTHNFMGFFTDLDAFALAQDLDFASWDSYPLGFTDLMPLPPEEKLRYARTGHPDVAAFHHDLYRGVGRGRFWVMEQQPGPVNWAPHNPSPAPGMVRLWTWEALAHGAEVVSYFRWRQAPFAQEQMHAGLHRPDSAPDQGFFEAKRVAEELAALALPPVAQAPVALVFDYEAAWIYEVQPQGAEWSYLGLVYLFYSALRRLGLDVDVVPPGASLRGYAFAVVPSLPIVREEALEAFREAEGPVLFGPRSGSKTETFQIPKELPPGPLQALLPLKVVRVESLPPGLLEVAEGALGRFPLGLWREWVEAPLKPLLTFQDGKGALYREGRYLYLAAWPSPELAGRLLSALAAEAGLKVLSLPEGLRLRRRGTWVFAFNYGPEAVEAPASEGARFLLGSRRVGPYDLAVWEEA | soluble |
| MLICNSSFPYLQVDYKIGVKGLLAKSKEDIDKCCKGEYFMQLKYVDTKEEIIAINRKSKHIEPHLHNALEIVCVTSGSLELGVGQELYHMEKGDIGFVFPDVIHHYQVLTPGVNKATYLIASPFSIDKFADIMQSMAPEYPIIKAEKVEPEVYRVINAILETEQSDITVAQAYLQIVLARCIGKLNLVEKSSVGSNDLIYQTVSYISANFKKKFSLEEMAKDLGVGKYVLSRLFSKTFHRNFNQYLNDARLNYACHRLENTSDSITNICLDSGFESQRTFNRVFKEKYKISPSDYRSTCVKEMLS | not soluble |
| MLIDMILAFSVAPTETPNNKAEMADVVAEAIRVVRESGLPNETNAMFTLIEGEWDEVMAVVKKATDAVLAVSPRASLVIKADIRPGYTGQLQQKVASVERVLAGDSES | not soluble |
| MLIGMSNQTVNQAVSSGVKASPHRFNRFEIKYLITEQDVPALREQLATRMSTDPLSPPGGYRVESLYFDSADLRCYTEKIEGLKFRRKLRIRTYGDGVLTPESTVSVEIKQRVNKVTQKRRLDLPFIYALALGDSTGAAVGEQVDVEKLLEISPENQHALIHEMASFAKNYRLRPIATTKYHREAFVGADAEESSRVTIDHGVSGRDRDFLLGQDLEDRPTVAQGLAVVEIKCDERVPFWLTDMTAQLEMSVIRMSKYCETIEAFHNRPASAFGAVDPIFLEHHHHHH | soluble |
| MLIQKAYKYRLYPTDQQAQRLRQLCGCARFVWNYALNETLSIHDAGGKIPSAFDLNKRLTGWKKLPELAFLSEGYTDNLQQKLKDLRSAWDRCFDKSLTAEKPVFKKKTKGCDSIRFVNFSKYCGLDYGRVKLPSGLGWVKFRQSRKIEGVIKNCTISQHAGHWYVSFQVELAVTDPIHASTSAIGLDAGITKLATLSDGTVFEPVNSLKKNQDKLARLQRRLARMVKFSANWKKQKAKISRFHSHIANIRRDYLHKTTTTISKNHAMIVIEDLKVSNMSKSAAGTVDQPGRNVAAKSGLNRAILDQGWAEMRRQLEYKQAWRGGDVLAINPAYTSQKCACCGHTSKNNRRTQASFICTACGYTANADVNGARNILTAGFEVMAAGQILPSVRKGRARKAA | not soluble |
| MLIRTEAPADILTVDRLVRSAFDTEAEAKLVMSLRENSHLTLALVACSDDGEVIGHCLFSPVTLNGDDLNWQGLAPLCVKKEHQKQGIAEALVKEGLEMLTELGYPVVVVLGDSNYYQRFGFESATNYDMHSKWEVPEGAFMIKACSSEFLEGRSGLIEYCPEFDVL | not soluble |
| MLITKNQAEKWFDNSLGKQFNPDLFYGFQCYDYANMFFMLATGERLQGLYAYNIPFDNKAKIEKYGQIIKNYDSFLPQKLDIVVFPSKYGGGAGHVEIVESANLNTFTSFGQNWNGKGWTNGVAQPGWGPETVTRHVHYYDNPMYFIRLNFPNNLSVGNKAKGIIKQATTKKEAVIKPKKIMLVAGHGYNDPGAVGNGTNERDFIRKYITPNIAKYLRHAGHEVALYGGSSQSQDMYQDTAYGVNVGNKKDYGLYWVKSQGYDIVLEIHLDAAGESASGGHVIISSQFNADTIDKSIQDVIKNNLGQIRGVTPRNDLLNVNVSAEININYRLSELGFITNKNDMDWIKKNYDLYSKLIAGAIHGKPIGGVVASEVKAPVKNEKNPPVPAGYTLDKNNVPYKKEQGNYTVANVKGNNVRDGYSTNSRITGVLPNNTTITYDGAYCINGYRWITYIANSGQRRYIATGEVDIAGNRISSFGKFSAV | soluble |
| MLKFKNRIVEKRVKGAEKASFGGPVLLYRTLRKVTKLYKYITDKKSFPILVTSLFALFNPNSVLAADKYSNFEELKENESPLSYNILTTDVDRRVLILAPHGGGIEGGTSELARELSKSYSAYLFEGLRIPGASELHITSTNFDEPQALDLLSKHDLTISIHGYASSKKHTLVGGTDREKAAKITSLLTDAGFSAELLSEDSRLAGTNEQNIANKNSTGMSIQLEISTEQRREMFNTFTLAGRNGTQNQVFYDYIAVLTKFINENVYCMAGVAPLEHHHHHH | not soluble |
| MLKLGHCGVEKQEVQKRIGLRVIELREHKGWSQSDLARACNKDRQAIEKIESGKVNPTIFSLYEIAIALGVSLSKVTGI | not soluble |
| MLKQPIQAQQLIELLKVHYGIDIHTAQFIQGGADTNAFAYQADSESKSYFIKLKYGYHDEINLSIIRLLHDSGIKEIIFPIHTLEAKLFQQLKHFKIIAYPFIHAPNGFTQNLTGKQWKQLGKVLRQIHETSVPISIQQQLRKEIYSPKWREIVRSFYNQIEFDNSDDKLTAAFKSFFNQNSAAIHRLVDTSEKLSKKIQPDLDKYVLCHSDIHAGNVLVGNEESIYIIDWDEPMLAPKERDLMFIGGGVGNVWNKPHEIQYFYEGYGEINVDKTILSYYRHERIVEDIAVYGQDLLSRNQNNQSRLESFKYFKEMFDPNNVVEIAFATEQLEHHHHHH | soluble |
| MLKRKVITEFRRHNRSSRWNADAHLRAHERSANVEDDAIMRVDTCQLAANNPIEDFYSAAKCLSSRAFLFGVFDGHGGQQCSRHISTNLYPYLCASVLKKHEVVDYPSDQRLEWLFSSSDGHLPNAFKGRETQHIAEYHKQFKKNANAYTGTVREALKLAFETCDKDLAENALPSAKGVIDRHAAMVAASGSCCTLAHIRSRHLHVANLGDAAAVLGVVNPNGSVTARQLSRAHCVDNADEVHRIRIAHPASESQTVLRGGRLLGELFPLRAFGDVRYKWPLDLQKVVLEPLGHPPPQHLFTPPYLSTSPEVFYHKLTPNDRFLVLATDGLWEWLDPDTVVRLVHDHTLGTITQQPYVPKSGTSLRQVREQLKDRARGEQKTKKPIDENCATHIIRHALGGVSGGATKQYERLIDILQVPPGRARNYRDDITVIVIHFNETFLDGHEDDEE | not soluble |
| MLLKRRLFIAASLFAMHLSPALAADAVSFAPQPPAIDAGAWVLMDYTTGQVLTAGNEHQQRNPASLTKLMTGYVVDRAIDSHRISPDDIVTVGRDAWAKDNPVFVGSSLMFLKEGDRVSVRDLSRGLIVDSGNDACVALADYIAGGQPQFVAMMNSYVKKLNLQDTHFETVHGLDAPGQHSSAYDLAVLSRAIIHGEPEFYHMYSEKSLTWNGITQQNRNGLLWDKTMHIDGLKTGHTSGAGFNLIASAVDGQRRLIAVVMGAKSSKGREEQARKLLQWGQQNFATVQILHSGKKVGSERIWYGDKEKIALGTEQDFWMALPKAEIPHIKAKYVLDRKELEAPIAAHQQVGEIELYDRDKLIAQWPLVTLESVGKGGMFSRLSDYFQHKA | not soluble |
| MLLSKKSEYKTLSTVEHPQYIVFCDFDETYFPHTIDEQKQQDIYELEDYLEQKSKDGELIIGWVTGSSIESILDKMGRGKFRYFPHFIASDLGTEITYFSEHNFGQQDNKWNSRINEGFSKEKVEKLVKQLHENHNILLNPQTQLGKSRYKHNFYYQEQDEINDKKNLLAIEKICEEYGVSVNINRCNPLAGDPEDSYDVDFIPIGTGKNEIVTFMLEKYNLNTERAIAFGDSGNDVRMLQTVGNGYLLKNATQEAKNLHNLITDSEYSKGITNTLKKLIGFMRRKLEHHHHHH | soluble |
